T1: human AMHRII (anti-Mullerian hormone receptor type 2) (human, UniProt Q16671 18-573)
T1 construct: whole, on cells; also called AMHR2; human AMHR2
T1 sequence (looked up): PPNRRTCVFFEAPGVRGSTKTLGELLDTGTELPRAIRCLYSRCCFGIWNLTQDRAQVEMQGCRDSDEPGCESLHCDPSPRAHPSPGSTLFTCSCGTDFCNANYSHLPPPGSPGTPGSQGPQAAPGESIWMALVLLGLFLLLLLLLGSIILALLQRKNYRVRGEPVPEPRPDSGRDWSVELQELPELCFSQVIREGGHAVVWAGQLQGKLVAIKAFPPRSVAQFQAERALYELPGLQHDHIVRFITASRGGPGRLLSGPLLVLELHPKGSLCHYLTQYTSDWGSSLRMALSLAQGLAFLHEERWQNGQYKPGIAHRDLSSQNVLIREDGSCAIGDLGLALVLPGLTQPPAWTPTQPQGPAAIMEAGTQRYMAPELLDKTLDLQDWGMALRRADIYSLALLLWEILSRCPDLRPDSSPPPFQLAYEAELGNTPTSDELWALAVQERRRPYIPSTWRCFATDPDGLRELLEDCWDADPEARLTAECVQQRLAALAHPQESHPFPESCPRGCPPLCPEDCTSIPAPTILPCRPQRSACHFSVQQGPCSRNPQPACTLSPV

B1: 108F3D1E9 H4L1 hIgG1 (antibody, V domains shown)
VH: QVQLQESGPGLVKPSETLSLTCTVSGYSITSDFAWNWIRQFPGKGLEWMGYISFSGSTSYNPSLKSRITISRDTSKNQFFLQLSSVTAEDTAVYYCAGSRYSWFAYWGQGTLVTVSS
VL: DIQMTQSPSSLSASVGDRVTITCRASESVDTYGNSFMHWYQQKPGKAPKLLIYRASNLESGVPSRFSGSGSGTDFTLTISSLQPEDFATYYCQQSNEDPYTFGGGTKVEIK
notes: Humanized, human IgG1; also called 108F3D1E9 H4L1 hlgG1
B2: 108F3D1E9 H3L4 hIgG1 (antibody, V domains shown)
VH: QVQLQESGPGLVKPSETLSLTCTVSGYSITSDFAWNWIRQFPGKGLEWMGYISFSGSTSYNPSLKSRITISRDTSKNQFSLKLSSVTAADTAVYYCAGSRYSWFAYWGQGTLVTVSS
VL: DIVLTQSPSSLSVSVGDRATITCRASESVDTYGNSFMHWYQQKPGQPPKLLIYRASNLESGIPARFSGSGSRTDFTLTISSVQPEDFATYYCQQSNEDPYTFGGGTKLEIK
notes: Humanized, human IgG1; also called 108F3D1E9 H3L4 hlgG1
B3: 108F3D1E9 H4L2 hIgG1 (antibody, V domains shown)
VH: QVQLQESGPGLVKPSETLSLTCTVSGYSITSDFAWNWIRQFPGKGLEWMGYISFSGSTSYNPSLKSRITISRDTSKNQFFLQLSSVTAEDTAVYYCAGSRYSWFAYWGQGTLVTVSS
VL: DIQLTQSPSSLSASVGDRVTITCRASESVDTYGNSFMHWYQQKPGKPPKLLIYRASNLESGIPSRFSGSGSGTDFTLTISSLQPEDFATYYCQQSNEDPYTFGGGTKVEIK
notes: Humanized, human IgG1; also called 108F3D1E9 H4L2 hlgG1
B4: 31D9B3 VH1.2-VL2.2 hIgG1 (antibody, V domains shown)
VH: QVQLVQSGAEVKKPGASVKVSCKASGYTFTDYWVSWVRQAPGQGLEWMGEIYPKNDVSNFNEKFKGRVTMTTDTSTSTAYMELRSLRSDDTAVYYCARQRDYWGQGTLVTVSS
VL: DVVMTQSPLSLPVTLGQPASISCRSSQSLEYGDRYTYLEWYLQRPGQSPRLLIYGVSNRFSGVPDRFSGSGSGTDFTLKISRVEAEDVGVYYCFQATHDPNTFGQGTKLEIK
notes: Humanized, PTM de-risked, human IgG1; also called 31D9B3 VH1.2-VL2.2 hlgG1
B5: 31D9B3 VH1.2-VL2.1 hIgG1 (antibody, V domains shown)
VH: QVQLVQSGAEVKKPGASVKVSCKASGYTFTDYWVSWVRQAPGQGLEWMGEIYPKNDVSNFNEKFKGRVTMTTDTSTSTAYMELRSLRSDDTAVYYCARQRDYWGQGTLVTVSS
VL: DVVMTQSPLSLPVTLGQPASISCRSSQSLEYGSGYTYLEWYLQRPGQSPRLLIYGVSNRFSGVPDRFSGSGSGTDFTLKISRVEAEDVGVYYCFQATHDPNTFGQGTKLEIK
notes: Humanized, PTM de-risked, human IgG1; also called 31D9B3 VH1.2-VL2.1 hlgG1
B6: 31D9B3 VH1.2-VL2.3 hIgG1 (antibody, V domains shown)
VH: QVQLVQSGAEVKKPGASVKVSCKASGYTFTDYWVSWVRQAPGQGLEWMGEIYPKNDVSNFNEKFKGRVTMTTDTSTSTAYMELRSLRSDDTAVYYCARQRDYWGQGTLVTVSS
VL: DVVMTQSPLSLPVTLGQPASISCRSSQSLEYGTGYTYLEWYLQRPGQSPRLLIYGVSNRFSGVPDRFSGSGSGTDFTLKISRVEAEDVGVYYCFQATHDPNTFGQGTKLEIK
notes: Humanized, PTM de-risked, human IgG1; also called 31D9B3 VH1.2-VL2.3 hlgG1
B7: 31D9B3 VH1.3-VL2.3 hIgG1 (antibody, V domains shown)
VH: QVQLVQSGAEVKKPGASVKVSCKASGYTFTDYWVSWVRQAPGQGLEWMGEIYPKNQVSNFNEKFKGRVTMTTDTSTSTAYMELRSLRSDDTAVYYCARQRDYWGQGTLVTVSS
VL: DVVMTQSPLSLPVTLGQPASISCRSSQSLEYGTGYTYLEWYLQRPGQSPRLLIYGVSNRFSGVPDRFSGSGSGTDFTLKISRVEAEDVGVYYCFQATHDPNTFGQGTKLEIK
notes: Humanized, PTM de-risked, human IgG1; also called 31D9B3 VH1.3-VL2.3 hlgG1
B8: 31D9B3 VH1.2-VL2 hIgG1 (antibody, V domains shown)
VH: QVQLVQSGAEVKKPGASVKVSCKASGYTFTDYWVSWVRQAPGQGLEWMGEIYPKNDVSNFNEKFKGRVTMTTDTSTSTAYMELRSLRSDDTAVYYCARQRDYWGQGTLVTVSS
VL: DVVMTQSPLSLPVTLGQPASISCRSSQSLEYGDGYTYLEWYLQRPGQSPRLLIYGVSNRFSGVPDRFSGSGSGTDFTLKISRVEAEDVGVYYCFQATHDPNTFGQGTKLEIK
notes: Humanized, PTM de-risked (VH G55D), human IgG1; also called 31D9B3 VH1.2-VL2 hlgG1
B9: 31D9B3 VH1.3-VL2.1 hIgG1 (antibody, V domains shown)
VH: QVQLVQSGAEVKKPGASVKVSCKASGYTFTDYWVSWVRQAPGQGLEWMGEIYPKNQVSNFNEKFKGRVTMTTDTSTSTAYMELRSLRSDDTAVYYCARQRDYWGQGTLVTVSS
VL: DVVMTQSPLSLPVTLGQPASISCRSSQSLEYGSGYTYLEWYLQRPGQSPRLLIYGVSNRFSGVPDRFSGSGSGTDFTLKISRVEAEDVGVYYCFQATHDPNTFGQGTKLEIK
notes: Humanized, PTM de-risked, human IgG1; also called 31D9B3 VH1.3-VL2.1 hlgG1

biological target: T1, human AMHRII (anti-Mullerian hormone …); assay: FACS on CHO-K1 cells over-expressing human AMHR2
Experimental: (§1) CHO-K1 cells over-expressed AMHR2 were harvested from flasks. 100 μl of 1×10⁶ cells/ml of cells were incubated with the humanized antibodies in 3-fold serial dilutions starting from 300 nM to 0.001 nM for 30 minutes on ice. After being washed with 200 μl of FACS buffer twice, cells were incubated with secondary antibody for 30 minutes on ice. Cells were washed with 200 μl of FACS buffer twice and analyzed by FACS.

EC50 [pM]	Top (MFI)	Binder
550	64400	B1
880	70900	B2
680	67900	B3

biological target: T1, human AMHRII (anti-Mullerian hormone …); assay: FACS on CHO-K1 cells over-expressing human AMHR2; remark: another data set of the same source
Experimental: as §1

EC50 [pM]	Top (MFI)	Binder
856	22000	B4
5680	10600	B5
617	12900	B6
380	12700	B7
1510	26800	B8
1200	10900	B9

biological target: T1, human AMHRII (anti-Mullerian hormone …); assay: FACS on Rko cells over-expressing human AMHR2
Experimental: as §1, with “Rko” for “CHO-K1”, “over-expressing” for “over-expressed”, “primary PTM” for “the humanized”

EC50 [pM]	Top (MFI)	Binder
878	16300	B4
1350	18200	B8

From patent US20240400701A1 (LANOVA MEDICINES DEVELOPMENT, published 2024)
